Changes are numbered by the printed parent chain. Read-outs that look alike come from different tables or passages of the source.
B1: PRO2589 (bispecific antibody)
chain 1: DVQMTQSPSSLSASVGDRVTITCRASENIYSGLAWYQQKPGKPPKLLIYRASTLASGVSSRFSGSGSGTDFTLTISSLQPEDFATYYCQGGYYSSSSTYIAFGTGTKVTVLGGGGGSGGGGSGGGGSGGGGSQSQVVESGGGLVQPGGSLRLSCAVSGFDLSSYAVSWVRQAPGKGLEWIGIIYPRANTYYASWAKGRFTISKDNSKNTVYLQMNSLRAEDTAVYFCARDRYDSGAYLYTTYFNLWGQGTLVTVSSGGGGSGGGGSAFELTQSPSSLSASVGDRVTITCQASESINSRLAWYQQKPGQPPKLLIYDASDLTSGVPSRFSGSGSGTDFTLTISSLQPEDFATYYCQGYGGSSTTTFGCGTKLTVLGGGSGGSDIQMTQSPSSLSASVGDRVTITCQSSQSVFSNNYLAWFQQKPGQSPKRLIYSASTLASGVPSRFSGSGSGTDFTLTISSLQPEDFATYYCLGSYACSSADCYVFGTGTKVTVLG
chain 2: DVQMTQSPSSLSASVGDRVTITCRASENIYSGLAWYQQKPGKPPKLLIYRASTLASGVSSRFSGSGSGTDFTLTISSLQPEDFATYYCQGGYYSSSSTYIAFGTGTKVTVLGGGGGSGGGGSGGGGSGGGGSQSQVVESGGGLVQPGGSLRLSCAVSGFDLSSYAVSWVRQAPGKGLEWIGIIYPRANTYYASWAKGRFTISKDNSKNTVYLQMNSLRAEDTAVYFCARDRYDSGAYLYTTYFNLWGQGTLVTVSSGGGGSGGGGSEVQLVESGGGLVQPGGSLRLSCAASGFSLSSYDMSWVRQAPGKGLAWIGASYASGPTYYASWAKGRFTISRDNSKNTVYLQMNSLRAEDTATYFCARGGWTGTSHSNIWGQGTLVTVSSGGGSGGGSGGGSGEVQLVESGGGLVQPGGSLRLSCAASGFSLSSYAMNWVRQAPGKCLEWIGHINAGDIAYYATWAKGRFTISRDNSKNTVYLQMNSLRAEDTAVYFCARGAGGFSTGPFKLWGQGTLVTVSS
notes: heterodimeric MATCH4, bivalent for ROR1, monovalent for CD3 and hSA; also called MATCH4 with 55-38-D07-sc02 / 19-04-A10-sc06 / 28-21-D09-sc04 / 55-38-D07-sc02
B2: PRO2590 (bispecific antibody)
chain 1: B1 chain 1 with T104C, G176C
chain 2: B1 chain 2 with T104C, G176C
notes: heterodimeric MATCH4, bivalent for ROR1, monovalent for CD3 and hSA; also called MATCH4 with 55-38-D07-sc06 / 19-04-A10-sc06 / 28-21-D09-sc04 / 55-38-D07-sc06

What was measured:
[1] = molecular target: T1, human ROR1 expressed on cells (human, UniProt Q01973 30-937); experiment: cell-based or functional assay
[2] = molecular target: T1, human ROR1 expressed on cells; experiment: cell-based or functional assay; remark: listed apart in the source
[3] = molecular target: T1, human ROR1 expressed on cells; experiment: cell-based or functional assay; remark: listed apart in the source
[4] = molecular target: T2, recombinant human ROR1 protein (Fc-Tag, Acro Biosystems RO1-H5250) (human, UniProt Q01973 30-406); experiment: SPR; hROR1-Fc immobilized (Avidity)
T2 construct: Bought; also called hROR1; recombinant human ROR1 ECD; not shown: Fc tag

[5] = molecular target: T3, recombinant human CD3 epsilon extra-cellular domain protein (His-Tag, SinoBiological) (human, UniProt P07766 23-126); experiment: SPR; hCD3ε immobilized, two-state fit
T3 construct: extracellular domain; Bought; also called hCD3ε; human CD3ε; not shown: His tag

[6] = molecular target: T1, human ROR1 expressed on cells; experiment: flow cytometry, MDA-MB-231 cells, 1 mg/ml hSA
[7] = molecular target: T3, recombinant human CD3 epsilon …; experiment: SPR; hCD3ε immobilized, two-state fit (Ka1)
Method: (§1) Binding kinetics (including affinity) of the four MATCH4 molecules to recombinant human CD3 epsilon extra-cellular domain protein (hCD3ε; His-Tag, SinoBiological) were determined by SPR analysis on a T200 device (Biacore, Cytiva). Recombinant hCD3ε molecules were covalently immobilized to a carboxymethylated dextran surface (CM5 sensorchip; Biacore, Cytiva) and a titration series of each MATCH4 molecule was injected as analyte. After each analyte injection-cycle, every flow channel on the sensor chip was regenerated (Glycine, pH 2.0 and 3 M MgCl₂), and a new concentration of MATCH4 molecule was injected. […] The apparent dissociation (kd1) and association (kₐ₁) rate constants, the second reaction constants (kₐ₂ and kd2) and the apparent dissociation equilibrium constant (KD) were calculated with the Biacore analysis software (Biacore Evaluation software Version 3.2, Cytiva) using a two-state binding model, and the quality of the fits was monitored based on relative Chi2. The binding level was calculated as the maximum stability binding achieved normalized to the theoretical Rmax.

[8] = molecular target: T3, recombinant human CD3 epsilon …; experiment: SPR; hCD3ε immobilized, two-state fit (kd1)
Method: as §1

[9] = molecular target: T1, human ROR1 expressed on cells; experiment: flow cytometry, MDA-MB-231 cells, 1 mg/ml hSA; remark: listed apart in the source
Method: After incubation at 4° C. for 1 h in presence of 1 mg/ml of human serum albumin (hSA), plates were washed and incubated with specific detection antibodies.
The binding of MATCH4 molecules to plasma membrane-based human ROR1 was assessed by flow cytometry. The calculated EC₅₀, rel.

[10] = molecular target: T4, human ROR1 (Peprotech 160-054) (human, UniProt Q01973 30-406); experiment: SPR; MATCH4 captured, hROR1 analyte (Affinity)
T4 construct: Bought, used as analyte; also called hROR1; recombinant human ROR1 protein
Method: Binding affinity without avidity was determined by using a proprietary anti-framework rabbit IgG (rlgG21-57-20-B11) immobilized to a carboxymethylated dextran surface (CM5 sensorchip; Biacore, Cytiva) to capture the MATCH4 molecules on the surface. A titration series of human ROR1 (Peprotech 160-054) molecule was injected as analyte. After each capture-analyte injection cycle, every flow channel on the sensor chip was regenerated (3 M MgCl₂), and a MATCH4 molecule was captured again followed by a different concentration of human ROR1. The binding kinetics to human ROR1 were measured using a multi-cycle kinetic assay, with ten analyte concentrations ranging from 0.088 to 90 nM, 1:2 diluted in running buffer (HEPES buffered saline, 0.05% Tween-20, pH 7.5; Bioconcept).
For both assays, the apparent dissociation (kd) and association (kₐ) rate constants and the apparent dissociation equilibrium constant (KD) were calculated with the Biacore analysis software (Biacore Evaluation software Version 3.2, Cytiva) using a one-to-one Langmuir binding model and quality of the fits was monitored based on Chi2 and U-value, which are measures for the quality of the curve fitting. The binding level was calculated as the maximum stability binding achieved normalized to the theoretical Rmax.

[11] = molecular target: T1, human ROR1 expressed on cells; experiment: flow cytometry, JIMT-1 cells (ROR1-positive)

Binder	Avg. % max. lysis (JIMT-1) [1]	Avg. % max. lysis (MDA-MB-231) [1]	Avg. % max. lysis (SKOV3) [1]	Avg. EC50 (nM) CD8 T cell act. (MDA-MB-231) [1]	Avg. EC50 (nM) CD8 T cell act. (SKOV3) [1]	Avg. EC50 (nM) Cytotoxicity (JIMT-1) [1]	Avg. EC50 (nM) Cytotoxicity (MDA-MB-231) [1]	Avg. EC50 (nM) Cytotoxicity (SKOV3) [1]	Avg. % max. CD8 T cell act. (JIMT-1) [2]	Avg. % max. CD8 T cell act. (MDA-MB-231) [2]	Avg. % max. CD8 T cell act. (SKOV3) [2]	Avg. EC50 (nM) CD8 T cell act. (JIMT-1) [2]	Avg. EC50 (nM) CD8 T cell act. (MDA-MB-231) [2]	Avg. EC50 (nM) CD8 T cell act. (SKOV3) [2]	Avg. % max. CD4 T cell act. (JIMT-1) [3]	Avg. % max. CD4 T cell act. (MDA-MB-231) [3]	Avg. % max. CD4 T cell act. (SKOV3) [3]	Avg. EC50 (nM) CD4 T cell act. (JIMT-1) [3]	Avg. EC50 (nM) CD4 T cell act. (MDA-MB-231) [3]	Avg. EC50 (nM) CD4 T cell act. (SKOV3) [3]	also measured
B1	41%	56.9%	54.6%	0.012 nM	0.031 nM	0.1 nM	0.015 nM	0.043 nM	23.8%	68.5%	66.7%	0.08 nM	0.012 nM	0.032 nM	36.7%	79%	80.3%	0.09 nM	0.006 nM	0.02 nM	Kd [4]: 0.093 nM; koff [4]: 7.02e-05 s⁻¹; kon [4]: 755000 M⁻¹ s⁻¹; Ka2 [5]: 0.0063 s⁻¹; Kd [5]: 5.9 nM; Kd2 [5]: 0.0042 s⁻¹; fold better rel. EC50 than scMATCH3 PRO2507 [6]: ~10 fold; kon [7]: 440000 M⁻¹ s⁻¹; koff [8]: 0.0065 s⁻¹; EC50 [9]: 1.55 nM; Rel. maximum binding (MFIMATCH4/MFIPRO2213) [9]: 2.67; rel. EC50 (EC50, PRO2213/EC50, MATCH4) [9]: 0.45; Kd [10]: 1.2 nM; koff [10]: 0.00011 s⁻¹; kon [10]: 94000 M⁻¹ s⁻¹; EC50 (read off the curve) [11]: 1 to 2 nM
B2	38.6%	52.2%	51.8%	0.013 nM	0.034 nM	0.13 nM	0.016 nM	0.049 nM	22.5%	68.8%	63.7%	0.09 nM	0.013 nM	0.034 nM	35.3%	79.3%	78.3%	0.11 nM	0.007 nM	0.02 nM	Kd [4]: 0.136 nM; koff [4]: 6.15e-05 s⁻¹; kon [4]: 453000 M⁻¹ s⁻¹; Ka2 [5]: 0.0055 s⁻¹; Kd [5]: 5.7 nM; Kd2 [5]: 0.0043 s⁻¹; kon [7]: 450000 M⁻¹ s⁻¹; koff [8]: 0.0058 s⁻¹; EC50 [9]: 1.23 nM; Rel. maximum binding (MFIMATCH4/MFIPRO2213) [9]: 2.76; rel. EC50 (EC50, PRO2213/EC50, MATCH4) [9]: 0.56; Kd [10]: 2.9 nM; koff [10]: 0.00017 s⁻¹; kon [10]: 59000 M⁻¹ s⁻¹; EC50 (read off the curve) [11]: 1 to 2 nM

Reference: US20240392003A1 (NUMAB THERAPEUTICS, published 2024)
